Publication doi:10.1101/2024.07.03.601791 (bioRxiv, 2024)
Several values for one entry are separate records, joined by “and”; a condition that tells them apart may be missing. Equal values may be shown once.

Columns and labels:
[1] = target: T1, Karyopherinβ2 (Kapβ2) (human, UniProt Q92973-2 1-890); assay: hydrogel binding assay
T1 sequence (looked up): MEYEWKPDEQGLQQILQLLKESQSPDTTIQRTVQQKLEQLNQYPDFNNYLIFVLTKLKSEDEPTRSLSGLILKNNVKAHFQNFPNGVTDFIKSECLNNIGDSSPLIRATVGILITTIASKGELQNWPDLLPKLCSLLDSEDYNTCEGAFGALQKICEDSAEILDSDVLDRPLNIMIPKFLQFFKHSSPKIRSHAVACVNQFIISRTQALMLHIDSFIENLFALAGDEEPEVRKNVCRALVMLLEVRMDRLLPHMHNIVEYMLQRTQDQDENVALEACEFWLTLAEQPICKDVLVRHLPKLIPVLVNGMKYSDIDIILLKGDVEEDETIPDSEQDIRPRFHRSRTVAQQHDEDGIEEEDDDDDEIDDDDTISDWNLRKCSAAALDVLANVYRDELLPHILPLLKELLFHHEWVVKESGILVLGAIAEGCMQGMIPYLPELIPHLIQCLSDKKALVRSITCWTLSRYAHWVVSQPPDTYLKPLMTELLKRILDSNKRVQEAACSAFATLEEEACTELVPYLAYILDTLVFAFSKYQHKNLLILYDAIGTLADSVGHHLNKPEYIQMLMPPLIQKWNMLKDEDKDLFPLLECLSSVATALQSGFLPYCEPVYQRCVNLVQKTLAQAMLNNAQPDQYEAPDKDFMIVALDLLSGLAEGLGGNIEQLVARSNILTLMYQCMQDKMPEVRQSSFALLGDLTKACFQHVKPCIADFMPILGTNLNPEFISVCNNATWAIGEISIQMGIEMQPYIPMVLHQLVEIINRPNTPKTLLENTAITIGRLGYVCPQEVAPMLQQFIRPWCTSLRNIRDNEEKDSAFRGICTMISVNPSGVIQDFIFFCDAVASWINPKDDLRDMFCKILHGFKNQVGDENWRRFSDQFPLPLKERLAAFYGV

[2] = target: T2, mCherry fusion LC-domain of FUS (residue 2–214, mCh:FUS-LC) (UniProt P35637 2-214); assay: hydrogel binding assay
T2 sequence (looked up): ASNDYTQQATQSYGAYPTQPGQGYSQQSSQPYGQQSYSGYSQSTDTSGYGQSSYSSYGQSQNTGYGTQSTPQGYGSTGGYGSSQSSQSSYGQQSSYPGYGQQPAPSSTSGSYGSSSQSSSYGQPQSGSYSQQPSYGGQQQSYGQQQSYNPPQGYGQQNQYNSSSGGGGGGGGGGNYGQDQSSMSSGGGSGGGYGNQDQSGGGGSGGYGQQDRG

[3] = target: T1, Karyopherinβ2 (Kapβ2); assay: chemical tongue
[4] = target: T1, Karyopherinβ2 (Kapβ2); assay: SEC
[5] = target: T1, Karyopherinβ2 (Kapβ2); assay: AUC
[6] = target: GTP-bound Ran (Q69L) (UniProt P62826 1-216, Q69L); assay: pull-down

B1: GFP fusion 20 repeats of PR (GFP:PR20) (peptide)
chain: PRPRPRPRPRPRPRPRPRPRPRPRPRPRPRPRPRPRPRPR
[1]
  binding result: binds
[2]
  binding result: binds

B2: PR20 (peptide)
peptide: B1 chain
[3]
  binding result: binds

B3: maltose-binding protein (MBP)-PR18 (peptide)
chain: PRPRPRPRPRPRPRPRPRPRPRPRPRPRPRPRPRPR
[4]
  stoichiometry N: 2
[5]
  stoichiometry N: 1 and ≥ 2

B4: GR20 (peptide)
peptide: GRGRGRGRGRGRGRGRGRGRGRGRGRGRGRGRGRGRGRGR
[3]
  binding result: binds

B5: GST-Kapβ2 (natural protein)
chain: T1 sequence (looked up)
[6]
  binding result: binds
